Each sequence was assayed on K4 kissing-loop RNA reporter (assay: apparent KD of K4 kissing-loop reporter; higher = weaker reporter binding). Settings: Eterna round: R107; input ligand: arginine 13.2 mM.
Experimental: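 RNA-MaP round R107: designed RNA switches with theophylline, tryptophan, arginine or FMN aptamers are transcribed on-chip within common flanks. They are titrated with a labelled K4 kissing-loop RNA reporter in RNA-MaP buffer (100 mM Tris pH 7.5, 80 mM KCl, 4 mM MgCl2), without ligand or with the indicated ligand. Median apparent KD per design.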
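Note: bound reporter read as fluorescence of individual clusters on recovered sequencing chips by microscopy, with normalized cluster intensities fitted with a binding model.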

First: UGGAGUUGACGAAAAGUCAACUCCUGAGAUACCAGUGACGAAAGUCACCCUUGGCAGCUCACUGCCAGUGAUGUUGGUAAAUAAA [#OpenEnded 3]
Second: AGGAUCCGUCGACAAAAGUCGACAUAAACCAAGGAUAUGACGAAAGUCAGAAGGUGGUCAUAAGGCCAGUGAUGUUGGUGGAUCC [FmnA 12 #SwitchBubble #K4Late]
The “apparent KD of K4 kissing-loop reporter” value of the first is 4.7-fold lower: 92.5 nM for the first, 431 nM for the second.

“UUCGUAGUAGGAAACUAUUACGAAAAGGAAGGAGCGGCGAAGAAGCCAGGUAGGUCGCCUAUUGACAGUGAUGUUGUUAUAUAGA [#10]” and “GAUUUAGAGGCGGCCGCCACUAGUGAUGUUAGUGAUGUUUGAUACUGAAUAUAUCUGCGUUUAGAUAGGACCGGGCCAGAUGGAG [qzwqmullin]” are within 1.5-fold of each other in “apparent KD of K4 kissing-loop reporter” value: 239 nM for the first, 164 nM for the second.

First: UGAUAGGACAGAAGGAGCGGCAGUGAUGUUGCCAAAAGGUUAAGGUGUCAAAAGACACCCUGCCAGGUAGGUCGCUGUCCUAUCU
Second: GCAGUCAAUCGACCACGAAAGUGGAUGGAUACCAGAGUCGAAAGACUCCCUUGGCAGCCAGUGAUGUUGGAAGACUGCAAUAAAA [#SwitchBubble 16 #K4Late]
The “apparent KD of K4 kissing-loop reporter” value of the first is 1.5-fold lower: 236 nM for the first, 357 nM for the second.

Going from “GGUGACUACCAGAGGUGAUGUAUAGUAUCGCGAGGACCGGUACGGCCGCCACUCGUGAAGAGAAAGGAGUGAUGUUCCGUAAUGG [Kazoo C8]” to “AACGUAGCUACUGAUACCAGACUUUUUCUUGUAUAUUAGUCAAGUGAUGUUUGACUUUUAGUCCCUUGGCAGCAGUUGCUACGAA [JR_Nu_SSTheophyB_Sub028]”, the “apparent KD of K4 kissing-loop reporter” value falls from 315 nM to 84.3 nM (3.7-fold).

“CUUCGUAAGGGCCCAGUGAUGUUGGGCACUCGAGGACCGGUACGGCCGCCACUCGCUCCCUAAGUCGCGCGCGUGGGCCACCGCC [Rezariatra]” and “UAACUCUUGCAGUGAUGUUGCAAGUAAGCUCAGGAUAUCAGGAAACUGAGAAGGGAGUAUCCUGAGCUUCUGCAAGAGCUCAGAA [KL-SSFMN-A5]” are within 1.5-fold of each other in “apparent KD of K4 kissing-loop reporter” value: 111 nM for the first, 83.2 nM for the second.

“UGUGCCAAAUGUGAUACCAGCUUCCUGCAGUGAUGUUGCAUACGAGUGAUGUUCGUCCGAGGCCCUUGGCAGCGCAGUCGUUUGA [Same State Theophylline B GF 27]” and “GUAUCGCUAGGAGGAUAUUUCAAUCUGACUCUUUGAGUUAGUACGGAGUGAUGUUCCGAUUUACGGAAAGAAGGCCUAGUGAUAC [FMN B 11]” are within 1.5-fold of each other in “apparent KD of K4 kissing-loop reporter” value: 442 nM for the first, 312 nM for the second.

Going from “UGACUGGAUGGAAGGAGCGCUAAACUCCUAGUGAUGUUAGGGAUAUGAGGCAAAGCCUCGAAGCAGGUAGGUCGCCAUCUAGUCU [FiskerMod 20 - Jieux - Same State - Arginine B]” to “AUUCGAUCAGUGAUGUUGAUCAAAGUCGAAGGAGCGGACGAAAGUCCAGGUAGGUCGCGACUACAAGGUGUUAAGACACCUCGAA [Spvincent t9 mod #OpenEnded]”, the “apparent KD of K4 kissing-loop reporter” value rises from 114 nM to 211 nM (1.9-fold).

Going from “AGAGUUAUGCGAGGAUAUGCGGUUAGUACUCAAAGAGUACUAACGGCAGAGUGAUGUUCUGUGAAAGCAGAAGGUGCAUAACUCA [Omei KL FMN B SS B v9]” to “GUUACGCAUGGAAGGAGCGCAUGCUCAACUAUAAGCUCAGUGAUGUUGAGCAUUUUUUUUUUGCAGGUAGGUCGCCAUGUGUAAC [Ex Arginine B K4 29]”, the “apparent KD of K4 kissing-loop reporter” value falls from 523 nM to 255 nM (2.1-fold).

“AGAUUCUUUUUUUUAUUUAAGUUUUCAGAAGGAGCGUGGUAGUACACAGGUAGGUCGCUGAAUUUUGGGCUAGUGAUGUUAGUUA [whbob_SS_Arginine_A_sa115]” and “GGGUCAGUCUGAAGGAGCGGCCAGACAGAGCAGUGAUGUUGCUCCUAAUUUAAAAGUGUCGGCCAGGUAGGUCGCAGAUUGGCUC [Dienralais]” are within 1.5-fold of each other in “apparent KD of K4 kissing-loop reporter” value: 188 nM for the first, 127 nM for the second.

First: CAGUUCUAUUCCGGUAGUGAUGUUACCAAGCGAGGACCGGUACGGCCGCCACUCGAGUGACAGACGUACUGGUAUCACCCGCUUC
Second: GGAUCCACCAGUGAUGUUGGAGAAAACUCCAAGGAUAUGACGAAAGUCAGAAGGUGGUAGACUGGACAAAGUCCGGUAGGAUCCA [FmnA10 A78]
The “apparent KD of K4 kissing-loop reporter” value of the first is 2.9-fold higher: 172 nM for the first, 58.5 nM for the second.

Compared with “AUCUAGAUGCGAAGGAGCGCCUCAACGCGCUAUCUAUGGAGUGAUGUUCCAACGUAUGAGAGGCAGGUAGGUCGCGCAUCUAGAA [Arg B Ex t1]”, “AGGCACGAGCAAGGAUAUCGAGUGGAGUGAUGUUCUGCCGACCCAGGACCGAAAGGUCCUGGGUCGCGAGAAGGUGCUCGUGCCU [#2 Same State - FMN A Attempt #8 (HarryS)]” is 6.9-fold higher in “apparent KD of K4 kissing-loop reporter” value: 113 nM for the first, 785 nM for the second.

“AAUUUAUAUUUGUUCUUCAAAUGUUCAGAAGGAGCGUGAAUUAUCACAGGUAGGUCGCUGGGCUAGUGAUGUUGGCUAUAUACUA [whbob_Ex_Arginine_A_2t126]” and “GGCAGUGAUGUUGCCUAAGCAACGCAUGCGGAGGAUAUUCGUUCGGGAAGAAGGCCGCAGCGUUCUCUCGAGUGAUGUUCGAGUA [Same State FMN A GF 21]” are within 1.5-fold of each other in “apparent KD of K4 kissing-loop reporter” value: 195 nM for the first, 176 nM for the second.

“GUAUCAGUGAUGUUGGUAGGCGAGCGGGAUACCAGCCAAGACUCAGGCCCUUGGCAGCCCACAUAUCCCACGUAGAUAGUAGCUC [Same State - Theophylline A (Freestyle 15)]” and “UUGUAAAAGUCGGCCGCCACUCCGGGCCCUAUAAAUGGGCGCAGUGAUGUUGCGGCUAGGCCUCUGAGGACCGGGACUUUAUAGC [Xeismaarbe]” are within 1.5-fold of each other in “apparent KD of K4 kissing-loop reporter” value: 95.6 nM for the first, 85.1 nM for the second.

Going from “ACGUCCGGAUUGAUCGUGGGCAUGGUCGAUACCAGUAGUUUAAUCUACCCUUGGCAGCGACAUGAGUGAUGUUCAUGUGCGAUGA [KL-XTheo-A7 #analogue]” to “UUUGGAUUGCGCGAAGAGUGCAAGCGCCAACGAGGACCGGUACGGCCGCCACUCGCGGAGGAGUCCAGUGAUGUUGGACGGCCCG [Laraones]”, the “apparent KD of K4 kissing-loop reporter” value rises from 164 nM to 276 nM (1.7-fold).

Going from “AAGGCAAUUCGAGGAUAUCACAUACACUCCUUGAAUCAAGGAGUGAUGUUCCUUGAAGUGUAUGCAUGAGAAGGCGAAUUGCCUU [#05 K4 FMN B Same State]” to “UUUUGGUACUGAGGAUAUUCGAAGAAAUAUAGUGAUGUUAUAUAAGGAGGAGGAGGGAGGGAGGAAGGAGAAGGCAGAAGAGGAG [ExFMNB.G]”, the “apparent KD of K4 kissing-loop reporter” value rises from 86.5 nM to 163 nM (1.9-fold).

First: UCUGGAGUAUAUGAUACCAGCAGUGAGAGACAGGAAGUAUAGUGAUGUUAUAUGAGAGAAUGCCCUUGGCAGCGUGUGCGGUGGG [SSTheophylB.R]
Second: GUAUGUGAUGGAAACAUCGCAUACACUGAUACCAGUAUCGAUAGAUACCCUUGGCAGCAGAAAACUGCAAUUGGAGUGAUGUUCC [Ex Theophylline A K4 1]
The “apparent KD of K4 kissing-loop reporter” value of the first is 2.1-fold lower: 85 nM for the first, 175 nM for the second.

In the case of “UGUCUUCAGUGAUGUUGAUGACAACACUUAAAGGAUAUGCGAGAGAGCAGAAGGUUAAACAACGCGCAAAUCAAGGAGGGUCUAG [theeternabot_exclusion_KL_FMN_A_30]”, the “apparent KD of K4 kissing-loop reporter” value is reported as 161 nM.

Same assay, conditions: Eterna round: R107; input ligand: none

First: UAGCGAUGAAGUGAUACCAGAGAGUGAUGUUCUUUUUUUAUUCAGAAUACUGUCGCCUUGCUCCCUUGGCAGCACGCAGGCGCAG [theeternabot_exclusion_KL_Theo_B_18]
Second: AAGGGCUAGGCGGCCGCCACUGGUCGUGAACACAUACGAGCCAGUGAUGUUGGUAUUGUGUGCGGCAGGACCGGGCCUAGCCGAA [Exclusion - Tryptophan B (Freestyle 24)]
The “apparent KD of K4 kissing-loop reporter” value of the first is 1.5-fold lower: 258 nM for the first, 391 nM for the second.

Going from “UGAUAGGACAGAAGGAGCGGUAGUGAUGUUACCAAAAGGAUAAGGUGUCAAAAGACACCCUGCCAGGUAGGUCGCUGUCCUAUCU” to “UAGGAGUGAUGUUCCAUAUCUUGAGCCGAAGGAGCGCCUUUAUAGGCAGGUAGGUCGCGGCAGAAGGUACCAGUGAUGUUGGAAA [Same State Arginine A GF6]”, the “apparent KD of K4 kissing-loop reporter” value rises from 107 nM to 164 nM (1.5-fold).

Going from “UUACCAAGUGAUGUUUGGAAAUAUCCUAGGCAGGAUAUGCGGAAACGCAGAAGGGCCACCUUAUAGUGAAGGAAACUUCGCUAUU [Ex FMN A 2]” to “ACGCUAGCUACCGAAAGGUAGCUAGCGAGUGAGGAUAUGUGGAAACACAGAAGGCACAGCGCAGUGAUGUUGUGCGGCGAAAGCC [whbob_SS_FMNA__2th166]”, the “apparent KD of K4 kissing-loop reporter” value rises from 140 nM to 418 nM (3-fold).

First: UUCUGCAUCUCGGCCGCCACUCACUAGUGAUGUUAGUAAGGAGCGACUAGACAUGUCCCGUUGUUGAGGACCGGGAGAGGCUCUU [#14 K4 Tryptophan B Exclusion]
Second: UCUUGUUCAUAGUGAUGUUAUGAGCUUAGAAAGGAUAUGAUCAACAUCAGAAGGUUCAAGGAUUCCCGACUCCAACUUCGGUUUC [theeternabot_sameState_KL_FMN_A_43]
The “apparent KD of K4 kissing-loop reporter” value of the first is 1.9-fold lower: 164 nM for the first, 306 nM for the second.

Compared with “CUUGAUGGAAACAUCGAGUAGAUUACUGAUACCAGUAUCGAUAGAUACCCUUGGCAGCAGAAUCAGUAAUCACGAGUGAUGUUCG [Ex Theophylline A K4 7]”, “GCUCAGGAGUGAUGUUCCAAGUGAUGUUAACGAGGACCGGUACGGCCGCCACUCGAUACGGCCGGACCGUAGGAUAAACUAGAGC [Same State - Tryptophan A (Freestyle 9)]” is 3-fold lower in “apparent KD of K4 kissing-loop reporter” value: 555 nM for the first, 183 nM for the second.

Going from “UGGAGUUGACGAAAAGUCAACUCCUGAGAUACCAGUGACGAAAGUCACCCUUGGCAGCUCACUGCCAGUGAUGUUGGUAAAUAAA [#OpenEnded 3]” to “AGGAUCCGUCGACAAAAGUCGACAUAAACCAAGGAUAUGACGAAAGUCAGAAGGUGGUCAUAAGGCCAGUGAUGUUGGUGGAUCC [FmnA 12 #SwitchBubble #K4Late]”, the “apparent KD of K4 kissing-loop reporter” value rises from 159 nM to 576 nM (3.6-fold).

“UUCGUAGUAGGAAACUAUUACGAAAAGGAAGGAGCGGCGAAGAAGCCAGGUAGGUCGCCUAUUGACAGUGAUGUUGUUAUAUAGA [#10]” and “GAUUUAGAGGCGGCCGCCACUAGUGAUGUUAGUGAUGUUUGAUACUGAAUAUAUCUGCGUUUAGAUAGGACCGGGCCAGAUGGAG [qzwqmullin]” are within 1.5-fold of each other in “apparent KD of K4 kissing-loop reporter” value: 176 nM for the first, 181 nM for the second.

Compared with “UGAUAGGACAGAAGGAGCGGCAGUGAUGUUGCCAAAAGGUUAAGGUGUCAAAAGACACCCUGCCAGGUAGGUCGCUGUCCUAUCU”, “GCAGUCAAUCGACCACGAAAGUGGAUGGAUACCAGAGUCGAAAGACUCCCUUGGCAGCCAGUGAUGUUGGAAGACUGCAAUAAAA [#SwitchBubble 16 #K4Late]” is 2.9-fold higher in “apparent KD of K4 kissing-loop reporter” value: 212 nM for the first, 622 nM for the second.

Compared with “GGUGACUACCAGAGGUGAUGUAUAGUAUCGCGAGGACCGGUACGGCCGCCACUCGUGAAGAGAAAGGAGUGAUGUUCCGUAAUGG [Kazoo C8]”, “AACGUAGCUACUGAUACCAGACUUUUUCUUGUAUAUUAGUCAAGUGAUGUUUGACUUUUAGUCCCUUGGCAGCAGUUGCUACGAA [JR_Nu_SSTheophyB_Sub028]” is 3.5-fold lower in “apparent KD of K4 kissing-loop reporter” value: 323 nM for the first, 91.4 nM for the second.

Going from “CUUCGUAAGGGCCCAGUGAUGUUGGGCACUCGAGGACCGGUACGGCCGCCACUCGCUCCCUAAGUCGCGCGCGUGGGCCACCGCC [Rezariatra]” to “UAACUCUUGCAGUGAUGUUGCAAGUAAGCUCAGGAUAUCAGGAAACUGAGAAGGGAGUAUCCUGAGCUUCUGCAAGAGCUCAGAA [KL-SSFMN-A5]”, the “apparent KD of K4 kissing-loop reporter” value rises from 116 nM to 362 nM (3.1-fold).

“UGUGCCAAAUGUGAUACCAGCUUCCUGCAGUGAUGUUGCAUACGAGUGAUGUUCGUCCGAGGCCCUUGGCAGCGCAGUCGUUUGA [Same State Theophylline B GF 27]” was tested, and the “apparent KD of K4 kissing-loop reporter” value was 528 nM.
